The assay concerns the target SARS-CoV-2 Spike protein (Wuhan-1 isolate) on VSV pseudovirus particles (SARS-CoV-2) (UniProt P0DTC2). The assay is described as follows: cell-based or functional assay.

In the case of “REGN10933 (benchmark, human IgG1) (antibody)”, the IC50 in pseudovirus assays came to 0.67 µg/mL.

Consider “REGN10987 (benchmark, human IgG1) (antibody)”, for which the IC50 in pseudovirus assays stood at 0.45 µg/mL.
